Results published in the supplement of paper PMC12042874.
± gives the uncertainty stated by the source.

Experiment: amyloid nucleation score (Sup35N fusion, yeast selection) (log enrichment); library NNK1; higher = more nucleation; inactive = no reads after selection
Summary of the method: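 Plasmid inserts were Illumina-sequenced at input and output from psi-negative yeast expressing Sup35N fused to peptides of 20 random codons. The yeast were induced with 100 μM copper sulfate for 24 hours and grown 7 days at 30°C on medium lacking adenine and uracil, and sequences with under 100 input reads were excluded. Nucleation score is the DiMSum log enrichment of output over input reads, centred on the mode score of non-aggregating sequences.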

Substance	amyloid nucleation score
RLAVKDNVCKLDMMSGCCLS	5.45 ± 0.059
ISHLDG	-1.04 ± 2.4
DFSSNDGWV	0.444 ± 0.47
MFRSRGLMAQRYNFGTQLSY	inactive
RHSLIFDRTGRGYGARVPVE	inactive
ASLSPNTASYNLELPSIMHM	0.283 ± 0.71
GISSVG	0.677 ± 0.4
NLSSLSWVTIYKNFCAIMSS	-0.378 ± 0.58
KMLNISGDTMWYVILVLRYV	-0.292 ± 0.56
YKDYVDLERAFKLMPGQKLW	inactive
YCKLDVAVFCVQYNMSMSEQ	5.46 ± 0.079
LLVSGVRSRKTQRWSFRACS	0.634 ± 0.7
DFYNETVTFFTHKIVINNWT	2.17 ± 0.31
FFMLFRCGF	0.333 ± 0.87
MWHERVGDVTVAHSNVGVMI	3.85 ± 0.082
MILFSYNG	1.7 ± 0.58
KLIRYYRFACVMSFRVFYSF	inactive
RSFEGKRFNVGWLFASATFM	0.157 ± 0.46
YIWSVYLLLCWHWCRMSCSG	1.23 ± 0.6
VGSIVELSVHTTSDEKVSCR	0.316 ± 0.25
SSMMLDYCRSYCANISTKCQ	0.675 ± 0.24
RKCEDGFWGKRDSATKGP	0.034 ± 0.29
ELNDVMRSGSKG	0.992 ± 1
INRSSVESLVLTDLKHWTSG	0.504 ± 0.49
MYISRFRF	3.42 ± 0.15

Substance	amyloid nucleation score
LFTIMMQPMGCHPCRPLASQ	0.082 ± 0.52
RRRSLLLVWRMTVGWVWGWD	-0.215 ± 0.62
LTSRIEWNGHAQSLWWLLSK	0.711 ± 0.21
LPTIHICLRSAHTRWFA	-0.438 ± 0.87
YLVITLFPEIIIDYLSYLCP	4.52 ± 0.079
DLLFAIMMS	-0.631 ± 1.2
GNDNCVRHGGRSSSRCLMKL	inactive
FLARNFCIC	5.67 ± 0.064
YNSTAIHNYENRRDLHQLYL	0.139 ± 0.33
CCYYTSVILVFDGRFDEMPY	4.23 ± 0.07
FSKTAGEVAYSLTESTDVRS	-1.26 ± 0.88
KSTTYKNLPSHGLRNSICTK	0.842 ± 0.69
SLPSNHTVLWTVWMMVFGAR	-1.09 ± 0.96
VPCDIYQCFYLSG	5.25 ± 0.094
FDGFNFISWIVR	2.06 ± 0.11
RHMRFPWLKAHVIFIMQWQR	1.16 ± 0.54
SRVNCYSSHSFSKYGRVGKS	-0.004 ± 0.59
NFELLPYLSLNWSHFFCSCF	6.56 ± 0.061
VYYYVLSLV	0.207 ± 1.4
TYSVTFF	0.231 ± 0.4
CFTYSARH	3.67 ± 0.11
RGDLF	3.04 ± 0.07
WRSSWWWRCCYYSSSSMSRW	1.12 ± 0.6
TTWVVFFEPGAV	-0.297 ± 0.84
WLGMRMVGNVVERLYSVRCQ	-0.111 ± 0.7

Substance	amyloid nucleation score
FLTAAWTSGHDGREFSPRPF	2.61 ± 0.16
LLGNSLAVSFSFNSLVNHYS	6.02 ± 0.063
MRLSCLRRWGSTSVSTG	-0.305 ± 0.36
GVMYLKRKLRCYMGINYVFH	0.074 ± 0.31
WNDWSYHCNF	-0.11 ± 0.27
CHNHRMYH	0.072 ± 0.9
DDSFVLFW	-0.042 ± 0.55
RSGGTSSTALQQQLRFNRTR	0.581 ± 0.33
THNWNNSYSWSPPDALVSCK	0.263 ± 0.51
SVRYYLLYHNFIMSSADKLS	6.485 ± 0.05
LYDCCYIFTYYGSRYLTQKS	-0.091 ± 0.27
CYDGDRFIEEA	0.364 ± 0.66
IWRLWWAKGPGSRLLRCRLY	-0.167 ± 0.42
LRFPLARNHTGYQTGVTEFT	-0.526 ± 0.32
VSGRVGKNAGITGM	0.813 ± 1.1
ETSPF	-0.03 ± 0.76
RLMNFE	-0.257 ± 0.43
FGWRISILLVPHRLFRGLPQ	-0.85 ± 1.9
LVQESRHGLIRIRRVLLRIS	-0.252 ± 0.52
LDVNLGYCHVVYWTIVKVRL	inactive
VSMFRRVASEALYRQPSMLA	0.972 ± 0.36
GVFSSQDTRAIDLCSGVYVM	0.003 ± 1.2
SHRWWIM	-0.597 ± 1.1
MDSCCIMTMIKHELGLPYQP	3.77 ± 0.1
RLVLNCRYNYCSREFVFYAV	0.292 ± 0.35

Substance	amyloid nucleation score
LEYSS	-0.145 ± 0.41
VFEADQNENGTTAPSEAQDR	-0.088 ± 0.3
TRWWGPLQFVYFPD	-0.17 ± 0.68
AEHLICLGYGQRWGNYTGLP	0.164 ± 0.62
LARLLNGQVGNDYCPGVPGG	-0.543 ± 0.4
SHFLF	0.93 ± 0.7
NPAGF	0.558 ± 1.1
YCAFTSLRIIRISNIFIRHE	inactive
SRGHDVRLTACDADGGLGLC	-0.17 ± 0.46
GPPSLYTWTAYCELSRRPEG	0.515 ± 0.66
PNQVYGTAFCGDEKNRMRWK	4.6 ± 0.079
PVCHLSGFFFLYDSGCSD	4.82 ± 0.069
FDFYSLRRGGVNYRSLLQVI	0.25 ± 0.84
HGLLHQVSVMPGIPSMAFNI	-0.016 ± 0.68
LYYYEQH	-0.388 ± 0.54
DMRYSRSCYTGCTDYYTCLG	-0.546 ± 0.4
WMDNTSHRFESCEV	0.635 ± 0.55
LNGNLVTMEGVLINNSFRVT	0.394 ± 0.24
PNPWRLRWLLALDMNLVGLQ	0.376 ± 1.1
FSNRWFC	-0.578 ± 0.31
DSVVCRKYDVIGKCQRRGTC	0.716 ± 0.61
FINDYMIQYSLHLQVLMST	3.95 ± 0.074
VWRTQMFRV	0.37 ± 1.1
CNWATLTMWLLSCIRPTPRS	-1.1 ± 2.4
YYSSHYVDIAHSKE	0.334 ± 0.32

Substance	amyloid nucleation score
ISHSIAVRNNLLLFGPCQNR	2.12 ± 0.12
NNWSVQSGNFTFCSGRGLCS	7.438 ± 0.054
WRFLLWSFHSEAYLIVYS	-0.773 ± 0.49
ARMSNMNPLFWLP	-0.04 ± 0.35
WESSGFQMICRSFSFNMFSS	-0.458 ± 0.52
IGCSI	inactive
SILQFALLMNSRDLVHRGYF	3.38 ± 0.17
RVGNNLNFM	-0.915 ± 0.3
RNFLNAYW	-0.307 ± 0.85
KREKEYFNERLPTDLSLQRC	-1.21 ± 0.66
TCLADLDWSRGGGYYPHRLC	0.372 ± 1.2
ISRGDVGVKESSGCNCVLPH	-0.587 ± 1.3
HSKLFFLWHPWWL	inactive
AERPSLYWLKLRKRRITVV	0.46 ± 1.2
VLINYLKMSDTCNFRLFLFK	5.916 ± 0.055
GLHKYPCYPTNSRYVVVINM	3.27 ± 0.066
KVISFYS	3.21 ± 0.083
VRSNRMTAGTGYWGNSTVKD	-0.65 ± 0.56
TTCSLVSSAAWMY	-0.223 ± 0.39
WLVGKTCNLYDLVLASLSNG	-0.704 ± 0.4
WLLVQLYYVCYFGLRLEFSM	-0.237 ± 0.18
AWRSFIGYRMRVWIGYRGCY	0.186 ± 0.95
KAFNVFER	0.225 ± 0.53
CYFVCNDHCYFYQSLLQTHE	5.32 ± 0.058
VFLLKDRNTTCLWKSVIQQM	0.494 ± 0.34

Substance	amyloid nucleation score
FTLCQASYMN	-0.655 ± 0.67
LAWMWYQGVSLRNKGGGMFY	-0.659 ± 1
LNRLSFLV	0.065 ± 1.2
IYTDSVGLFCSYADMPSDRV	0.372 ± 1.4
KGLCDNVMDLVRLKGGSEAG	0.443 ± 0.42
RDCPTNIVAGTLLCLMAEWT	-0.549 ± 1
SSLGIGFAPLISSFISC	-0.429 ± 0.64
LTYATDSFNRNFHILMHHVP	-0.711 ± 0.74
ALPCYCPPVQSPCASFGWME	-0.569 ± 0.29
SVLTGNVTGDDGLCKSSIYA	0.515 ± 0.34
ADVQWRHRTGISSSIVRSGA	0.822 ± 1
YLQLSRAVQRVLTRRWSSI	0.31 ± 0.52
SFSMFSEFSLLRCSAYRNPM	2.26 ± 0.063
CKRTSDPCHIVECFLPFHVL	0.315 ± 0.85
GPSVPLGVFEKKTAFLKKTL	-0.328 ± 0.79
VSYKTGIWGVSCDIDGVY	-0.182 ± 0.24
LRCSLDGFFGLDWLANLILD	-0.115 ± 0.23
LEAMPMCGEELRSLYTMVNV	0.552 ± 0.42
RVGSFMVNPSSCMSYAFWLR	0.443 ± 0.49
LISRIS	0.303 ± 1
SVILIGRRDDHASSIRVIGS	-0.752 ± 0.69
FKYALKTSCLLIVQDGGSMR	-0.023 ± 1.4
GVVGYGIWHSLGVRLIQNLC	0.389 ± 0.93
PFVNW	0.432 ± 0.84
NVIWVASYF	-0.914 ± 0.44

Substance	amyloid nucleation score
GAKYMNMRIRRTSFGSAYQS	0.335 ± 0.48
YDYSLCANIMNRYHAK	0.333 ± 0.29
LCMLWLKVKRHRDMRSIGIW	-0.003 ± 0.42
AFYWLHLDGFLQLNQQMSVA	0.992 ± 0.7
HWNHYWQ	-0.07 ± 0.46
GCEFWSYTLTLRGKNACNKL	-0.234 ± 0.42
YGGNL	0.169 ± 0.52
IIRLVQNRSIMSFAMGISWV	2.4 ± 0.33
SDASLLTKSVFADGRDQVTR	0.433 ± 0.28
VMFVPLQSVYSAP	-0.766 ± 2.4
VCGVRMVLALSRFVLSAINN	0.177 ± 0.65
YFVGGF	-0.859 ± 0.91
LLCFIIILCSRELNVDA	0.279 ± 1.2
LNRGYAGFSLN	-1.86 ± 1.1
SGSINENVKYSDTLVWLWKM	4.92 ± 0.055
RCMNWVKCDRNPCVMLSIGT	inactive
MFHSYVSLGLCKW	0.371 ± 0.84
ICACIMELCSLLHGIRGM	-0.378 ± 1.4
DEITLMLA	0.155 ± 0.35
LTNTGEYQLVSTIPQGRHVV	-0.222 ± 0.36
SDSRVVLPLLIPLSART	0.865 ± 0.42
QDFSVTPHGV	0.228 ± 0.62
WPGLFMIY	0.016 ± 0.49
